Drawing on PMC10912698, this text covers fold change of co-immunoprecipitated V5-HinK, low c-di-GMP lysate (PA2133 overexpressing strain) against the PAO1 control strain and fold change of co-immunoprecipitated V5-HinK against wild-type TssZ for one substance.

The target in experiment [1] is TssZ-HA (TssZ fused with a HA tag at its carboxyl-terminal) (Pseudomonas aeruginosa PAO1). In words: co-IP; PAO1 lysate co-expressing TssZ-HA (or TssZ^R5A/R9A) and V5-HinK; Anti-HA Affinity Gel, 2 h at 4 °C, 50 mM Tris-HCl pH 8.0, 150 mM NaCl, 0.05% TWEEN-20; blots with anti-V5 and anti-HA; also in strains overexpressing PA2133 (low c-di-GMP) or WspR (high c-di-GMP) and with 0-6.4 μM exogenous c-di-GMP.

Experiment [2] concerns the target TssZ^R5A/R9A (non-c-di-GMP-binding mutant) as used in the co-IP (Pseudomonas aeruginosa PAO1). Described as above.

Regarding “V5-HinK (HinK fused with V5 tag at its amino-terminal) (natural protein)”, in experiment [1], the fold change of co-immunoprecipitated V5-HinK, low c-di-GMP lysate (PA2133 overexpressing strain) against the PAO1 control strain is 2.2 fold. In addition, in experiment [2], the fold change of co-immunoprecipitated V5-HinK against wild-type TssZ turned out to be 3.3 fold.
